Laboratory results taken from the RNAGym collection of RNA variant scans (doi:10.1093/molbev/msab373).

B1: Azoarcus group I ribozyme (parent)
chain: GUGCCUUGCGCCGGGAAACCACGCAAGGGAUGGUGUCAAAUUCGGCGAAACCUAAGCGCCCGCCCGGGCGUAUGGCAACGCCGAGCCAAGCUUCGGCGCCUGCGCCGAUGAAGGUGUAGAGACUAGACGGCACCCACCUAAGGCAAACGCUAUGGUGAAGGCAUAGUCCAGGGAGUGGCGAAAGUCACACAAACCGG

Variants of: B1
Assay: reverse-splicing fitness (ratio to wild type); higher = more active; in vitro selection; Mg2+ level not given
Summary of the method: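 An in vitro group I ribozyme library with randomized positions was T7-transcribed and gel-purified. In triplicate, 10 pmol RNA in EPPS pH 7.5 was reacted with 50 pmoles of a 30-nt RNA substrate for 1 h at 37 °C across several added MgCl2 levels (1–48 mM), then stopped with EDTA. Products were reverse transcribed from a substrate-complementary primer, PCR-amplified and sequenced (HiSeq 4000). Fitness is a variant's read proportion after selection over that before, normalised to wild type.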

Row | Variant | reverse-splicing fitness
1 | C82G A111G A145U C150U C169U U176G | 0.00549
2 | C82G A111U A120C A145C U176G | 0.00674
3 | C82G A111U A120C A145C U176C | 0.0234
4 | C82G A111U A120C A145C U176A | 0.0155
5 | C82G A111U A120C C150A | 0.0117
6 | C82G A111U A120C C150G | 0.00875
7 | C82G A111U A120C C150U | 0.0329
8 | C82G A111G A145U C150U | 0.261
9 | C82G A111U A120C A145U C169U | 0.0143
10 | C82G A111U A120C A145U C169A | 0.00897
11 | C82G A111U A120C A145U C169G | 0.00981
12 | C82G A111U A120C A145C C150A C169A U176G | 0.00706
13 | C82G A111U A120C A145C C150A C169A U176A | 0.0162
14 | C82G A111U A120C A145C C150A C169A U176C | 0.0121
15 | C82G A111U A120C A145C C150A | 0.0109
16 | C82G A111U A120C A145C C150U | 0.0168
17 | C82G A111U A120C A145C C150G | 0.0104
18 | C82G A111G A145U C150U C169A U176C | 0.0132
19 | C82G A111G A145U C150U C169A U176A | 0.015
20 | C82G A111G A145U C150U C169A U176G | 0.00584
21 | C82G A111U A120C C150U C169G | 0.00965

Row | Variant | reverse-splicing fitness
22 | C82G A111U A120C C150U C169A | 0.0105
23 | C82G A111U A120C C150U C169U | 0.0125
24 | C82G A111U A120C C150G C169A U176G | 0.00844
25 | C82G A111U A120C C150G C169A U176C | 0.0141
26 | C82G A111U A120C C150G C169A U176A | 0.0137
27 | C82G A111U A120C C150G C169G | 0.00753
28 | C82G A111U A120C C150G C169U | 0.0106
29 | C82G A111U A120C C150G C169A | 0.00975
30 | C82G A111G A145U C169U | 0.0127
31 | C82G A111G A145U C169A | 0.00634
32 | C82G A111G A145U C169G | 0.0101
33 | C82G A111U A120C A145U C150G | 0.0103
34 | C82G A111U A120C A145U C150A | 0.0104
35 | C82G A111U A120C A145U C150U | 0.0337
36 | C82G A111U A120C A145C C150G C169G | 0.00735
37 | C82G A111U A120C A145C C150G C169U | 0.00834
38 | C82G A111U A120C A145C C150G C169A | 0.0104
39 | C82G A111U A120C A145C C169G U176C | 0.0236
40 | C82G A111U A120C A145C C169G U176A | 0.0301
41 | C82G A111U A120C A145C C169G U176G | 0.00667
42 | C82G A111G C169A | 0.00879
